Results as given in patent US20140179896A1 (published 2014).
Where a chain is given by its changes, count along the chain named.

What was measured:
[1] = target: T1, human vascular endothelial growth factor receptor-2 Fc chimera (KDR-Fc) (human, UniProt P35968 20-764); assay: radioactive equilibrium binding, 1 nM KDR-Fc
T1 construct: range 1-764; purchased from R&D Systems; also called hKDR; human VEGF-R2-Fc; not shown: human IgG1 Fc
In short: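 Receptor-Fc fusions titrated from 0 to 200 nM against a fixed 0.2 or 0.5 nM of ³⁵S-labeled scaffold protein for 1 h at 30° C. Protein A bead pull-down followed by scintillation counting of eluate versus reaction mixture. Specific binding is total minus no-receptor binding, fitted to a one-site nonlinear equation.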
T1 sequence (P35968 20-764 limits assumed, change not shown, form in doubt): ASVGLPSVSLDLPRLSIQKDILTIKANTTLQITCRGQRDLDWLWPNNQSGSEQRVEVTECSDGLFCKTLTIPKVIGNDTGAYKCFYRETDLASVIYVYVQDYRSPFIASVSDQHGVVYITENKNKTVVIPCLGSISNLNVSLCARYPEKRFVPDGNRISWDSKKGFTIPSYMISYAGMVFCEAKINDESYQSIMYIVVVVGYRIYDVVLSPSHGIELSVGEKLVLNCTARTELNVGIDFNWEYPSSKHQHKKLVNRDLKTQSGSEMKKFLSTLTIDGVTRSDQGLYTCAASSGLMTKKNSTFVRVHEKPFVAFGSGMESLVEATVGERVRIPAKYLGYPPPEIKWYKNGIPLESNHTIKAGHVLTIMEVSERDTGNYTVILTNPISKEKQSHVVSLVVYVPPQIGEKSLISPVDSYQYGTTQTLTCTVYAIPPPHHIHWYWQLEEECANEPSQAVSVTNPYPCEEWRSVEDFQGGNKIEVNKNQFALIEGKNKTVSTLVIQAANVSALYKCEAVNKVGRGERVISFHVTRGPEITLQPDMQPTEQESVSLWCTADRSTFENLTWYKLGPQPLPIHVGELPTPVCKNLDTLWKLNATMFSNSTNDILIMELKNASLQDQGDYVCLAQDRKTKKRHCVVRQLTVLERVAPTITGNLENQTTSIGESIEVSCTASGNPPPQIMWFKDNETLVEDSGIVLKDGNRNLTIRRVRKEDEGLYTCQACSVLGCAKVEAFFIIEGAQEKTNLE

[2] = target: T2, human vascular endothelial growth factor receptor-2 Fc chimera (KDR-Fc) (human, UniProt P35968 20-764); assay: radioactive equilibrium binding assay, 1 nM KDR-Fc, % of input bound
T2 construct: range 1-764; also called human VEGFR-2; not shown: human IgG1 Fc
Protocol: (§1) To prepare ³⁵S-labeled binding proteins for analysis, mRNA was prepared as described above for RNA-protein fusion production but the linker ligation step was omitted. The mRNA was expressed using rabbit reticulocyte lysate translation kit (Ambion) in the presence of ³⁵S-labeled Met at 30° C. for 1 hour. Expressed protein was purified on M2-agarose Flag beads (Sigma) as described above. This procedure produced the encoded protein without the nucleic acid tail. In a direct binding assay, VEGF-R2-Fc fusions in concentrations ranging from 0 to 200 nM were added to a constant concentration of the purified protein (0.2 or 0.5 nM) and incubated at 30° C. for 1 hour in buffer B. The receptor-binder complexes were captured using Protein A magnetic beads for another 10 minutes at room temperature using a Kingfisher™ The beads were washed with six reaction volumes of buffer B. The protein was eluted from the beads with 100 μL of 0.1 M KOH. […] of the reaction mixture and elution were dried onto a LumaPlate-96 (Packard) and the amount of ³⁵S on the plate was measured using a TopCount NXT instrument (Packard). The amount of fibronectin-based scaffold protein bound to the target was estimated as a percent of radioactivity eluted from Protein A magnetic beads compare to radioactivity in the reaction mixture. Nonspecific binding of fibronectin-based scaffold proteins to the beads was determined by measuring binding in the absence of KDR-Fc and represented less than 1-2% of the input. Specific binding was obtained through subtraction of nonspecific binding from total binding. Data was analyzed using the GraphPad Prizm software (GraphPad Software, Inc, San Diego, Calif.), fitted using a one site, non-linear binding equation.
T2 sequence (P35968 20-764 limits assumed, change not shown, form in doubt): as above

[3] = target: T3, mouse vascular endothelial growth factor receptor-2 Fc chimera (Flk-1-Fc) (mouse, UniProt P35918 20-762); assay: radioactive equilibrium binding assay, 1 nM Flk-1-Fc, % of input bound
T3 construct: Bought from R&D Systems; also called mouse VEGFR-2; not shown: Fc part of the purchased chimera, not specified
T3 sequence (P35918 20-762, change not shown): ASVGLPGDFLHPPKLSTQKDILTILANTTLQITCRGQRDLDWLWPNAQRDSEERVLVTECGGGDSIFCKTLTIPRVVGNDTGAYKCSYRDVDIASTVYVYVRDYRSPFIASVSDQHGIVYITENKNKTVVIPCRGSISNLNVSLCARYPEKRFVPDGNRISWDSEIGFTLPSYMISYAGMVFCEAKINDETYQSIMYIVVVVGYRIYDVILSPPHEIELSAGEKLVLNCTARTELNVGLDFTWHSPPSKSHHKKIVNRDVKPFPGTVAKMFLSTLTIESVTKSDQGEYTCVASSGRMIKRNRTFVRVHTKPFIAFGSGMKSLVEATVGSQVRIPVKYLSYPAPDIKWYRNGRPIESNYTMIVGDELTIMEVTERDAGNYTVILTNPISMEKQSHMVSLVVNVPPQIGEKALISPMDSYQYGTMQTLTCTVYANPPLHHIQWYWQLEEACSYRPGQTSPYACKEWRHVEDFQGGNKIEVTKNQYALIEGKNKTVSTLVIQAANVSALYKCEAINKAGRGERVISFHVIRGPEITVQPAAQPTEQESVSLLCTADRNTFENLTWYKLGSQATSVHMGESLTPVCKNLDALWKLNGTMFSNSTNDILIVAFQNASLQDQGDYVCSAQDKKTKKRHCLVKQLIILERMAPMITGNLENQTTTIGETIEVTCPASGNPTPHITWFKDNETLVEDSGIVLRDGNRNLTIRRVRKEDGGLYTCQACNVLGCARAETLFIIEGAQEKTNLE
Protocol: as §1

B1: 2C6 PR3 (designed binder)
chain: VSDVPRDLEVVAATPTSLLISWRHPHFPTRYYRITYGETGGNSPVQEFTVPLQPPTATISGLKPGVDYTITGYAVTVEPNGHKLAIPISINYRT
notes: tag left out
Binding to 1 nM KDR, % [1]: 5%

B2: 2C9 PR3 (designed binder)
chain: B1 chain with V77E, E78A, H82R, K83E, A85R, I86T
notes: tag left out
Binding to 1 nM KDR, % [1]: 7%

B3: 2C12 PR3 (designed binder)
chain: B1 chain with V77D, E78A, P79Q, G81V, H82Q, K83A, L84P, A85I, I86A, P87Q
notes: tag left out
Binding to 1 nM KDR, % [1]: 6%

B4: 2D12 PR3 (designed binder)
chain: B1 chain with V77E, E78G, P79W, N80I, G81D, K83E, L84I, A85M
notes: tag left out
Binding to 1 nM KDR, % [1]: 14%

B5: 2F3 PR3 (designed binder)
chain: B1 chain with V77L, E78S, P79H, N80Y, H82K, K83E, A85R, I86T
notes: tag left out
Binding to 1 nM KDR, % [1]: 8%

B6: 2F10 PR3 (designed binder)
chain: B1 chain with V77L, E78A, P79L, N80F, G81D, K83E, A85L, I86T
notes: tag left out
Binding to 1 nM KDR, % [1]: 3%

B7: 2G9 PR3 (designed binder)
chain: B1 chain with V77E, E78I, P79Y, G81D, K83E, A85M, I86T
notes: tag left out
Binding to 1 nM KDR, % [1]: 9%

B8: 2G12 PR3 (designed binder)
chain: B1 chain with V77S, E78G, P79Q, G81D, K83A, A85L
notes: tag left out
Binding to 1 nM KDR, % [1]: 6%

B9: 2H10 PR3 (designed binder)
chain: B1 chain with V77L, E78A, N80S, G81A, H82R, K83E, A85M, I86T
notes: tag left out
Binding to 1 nM KDR, % [1]: 10%

B10: 2H12 PR3 (designed binder)
chain: B1 chain with V77E, E78G, P79Y, N80Q, G81N, K83E, A85S, I86V
notes: tag left out
Binding to 1 nM KDR, % [1]: 10%

B11: 2′A1-PR4 (designed binder)
chain: B1 chain with V77S, E78G, P79H, G81D, K83M, A85M
notes: tag left out
Binding to 1 nM KDR, % [1]: 11%

B12: 2′A11-PR4 (designed binder)
chain: B1 chain with V77E, E78D, P79I, N80R, G81V, H82L, K83W, A85N, I86T, P87T
notes: tag left out
Binding to 1 nM KDR, % [1]: 6%

B13: 2′B4-PR4 (designed binder)
chain: B1 chain with V77S, E78G, P79H, K83E, L84V, A85M, I86T
notes: tag left out
Binding to 1 nM KDR, % [1]: 4%

B14: 2′B9-PR4 (designed binder)
chain: B1 chain with E78G, N80T, G81D, K83E, A85L, I86T
notes: tag left out
Binding to 1 nM KDR, % [1]: 7%

B15: 2′C7-PR4 (designed binder)
chain: B1 chain with V77W, E78D, P79Q, K83V, A85L, I86T
notes: tag left out
Binding to 1 nM KDR, % [1]: 5%

B16: 2′D5-PR4 (designed binder)
chain: B1 chain with E78A, P79W, G81D, K83M, A85M, I86T
notes: tag left out
Binding to 1 nM KDR, % [1]: 11%

B17: 2′F6-PR4 (designed binder)
chain: B1 chain with V77L, E78G, P79W, G81D, K83E, A85Y
notes: tag left out
Binding to 1 nM KDR, % [1]: 4%

B18: 2′F7-PR4 (designed binder)
chain: B1 chain with V77L, E78G, P79L, N80R, G81D, H82R, K83E, A85F, I86V
notes: tag left out
Binding to 1 nM KDR, % [1]: 5%

B19: 2′G11-PR4 (designed binder)
chain: B1 chain with V77G, E78G, P79Q, N80M, G81N, H82R, K83V, A85M, I86T
notes: tag left out
Binding to 1 nM KDR, % [1]: 12%

B20: 2′H5-PR4 (designed binder)
chain: B1 chain with V77L, E78G, P79K, N80D, G81V, H82R, K83E, A85L, I86T
notes: tag left out
Binding to 1 nM KDR, % [1]: 3%

B21: EGE8 (designed binder)
chain: EVVAATPTSLLISWRHPHFPTRYYRITYGETGGNSPVQEFTVPLQPPTATISGLKPGVDYTITGYAVTVERNERVLMTPISINYRT
notes: 10Fn3 clone, Del 1-8
Binding to 1 nM KDR, % [2]: 26% | Binding to 1 nM Flk-1, % [3]: 20%

B22: EGE9 (designed binder)
chain: B21 chain with V69F, E70G, R71P, E73D, V75E, M77L
notes: 10Fn3 clone, Del 1-8
Binding to 1 nM KDR, % [2]: 32% | Binding to 1 nM Flk-1, % [3]: 1%

B23: EGE10 (designed binder)
chain: B21 chain with V69M, E70G, R71P, E73D, V75E, M77L
notes: 10Fn3 clone, Del 1-8
Binding to 1 nM KDR, % [2]: 37% | Binding to 1 nM Flk-1, % [3]: 1%

B24: EGE11 (SEQ ID NO 72) (designed binder)
chain: B21 chain with V69F, E70G, R71W, E73D, V75E, M77L, T78I
Binding to 1 nM KDR, % [2]: 50% | Binding to 1 nM Flk-1, % [3]: 0%

B25: EGE11 (SEQ ID NO 87) (designed binder)
chain: B21 chain with V69M, E70G, R71K, E73D, V75E, M77L
Binding to 1 nM KDR, % [2]: 32% | Binding to 1 nM Flk-1, % [3]: 1%

B26: F1 (designed binder)
chain: B21 chain with V69S, E70G, E73D, V75E, M77L, T78V
notes: 10Fn3 clone, Del 1-8
Binding to 1 nM KDR, % [2]: 18% | Binding to 1 nM Flk-1, % [3]: 2%

B27: F3 (designed binder)
chain: B21 chain with N72D, E73G, V75K, M77Y
notes: 10Fn3 clone, Del 1-8
Binding to 1 nM KDR, % [2]: 27% | Binding to 1 nM Flk-1, % [3]: 15%

B28: F4 (designed binder)
chain: B21 chain with N72D, E73G, V75T, M77R
notes: 10Fn3 clone, Del 1-8
Binding to 1 nM KDR, % [2]: 31% | Binding to 1 nM Flk-1, % [3]: 18%

B29: F6 (designed binder)
chain: B21 chain with R71Q, E73G
notes: 10Fn3 clone, Del 1-8
Binding to 1 nM KDR, % [2]: 37% | Binding to 1 nM Flk-1, % [3]: 2%

B30: F7 (designed binder)
chain: B21 chain with R71H, E73G, M77N, T78I
notes: 10Fn3 clone, Del 1-8
Binding to 1 nM KDR, % [2]: 30% | Binding to 1 nM Flk-1, % [3]: 7%

B31: F8 (designed binder)
chain: B21 chain with R71H, E73G, V75T, L76S, M77F
notes: 10Fn3 clone, Del 1-8
Binding to 1 nM KDR, % [2]: 33% | Binding to 1 nM Flk-1, % [3]: 13%

B32: F9 (designed binder)
chain: B21 chain with R71P, E73G, M77N
notes: 10Fn3 clone, Del 1-8
Binding to 1 nM KDR, % [2]: 32% | Binding to 1 nM Flk-1, % [3]: 23%

B33: F10 (designed binder)
chain: B21 chain with V69M, E70A, R71P, E73G, V75E, M77L
notes: 10Fn3 clone, Del 1-8
Binding to 1 nM KDR, % [2]: 29% | Binding to 1 nM Flk-1, % [3]: 1%

B34: F11 (designed binder)
chain: B21 chain with R71Q, E73G, M77N
notes: 10Fn3 clone, Del 1-8
Binding to 1 nM KDR, % [2]: 20% | Binding to 1 nM Flk-1, % [3]: 8%

B35: FE (designed binder)
chain: B21 chain with N72D, E73G, V75E, M77N, T78I
Binding to 1 nM KDR, % [2]: 12% | Binding to 1 nM Flk-1, % [3]: 8%

B36: G2 (designed binder)
chain: B21 chain with V69L, E73N, V75E, M77L
notes: 10Fn3 clone, Del 1-8
Binding to 1 nM KDR, % [2]: 25% | Binding to 1 nM Flk-1, % [3]: 9%

B37: G3 (designed binder)
chain: B21 chain with V69M, N72S, E73G, V75E
notes: 10Fn3 clone, Del 1-8
Binding to 1 nM KDR, % [2]: 28% | Binding to 1 nM Flk-1, % [3]: 10%

B38: G4 (designed binder)
chain: B21 chain with V69I, R71K, E73G, V75H, M77N, T78I
notes: 10Fn3 clone, Del 1-8
Binding to 1 nM KDR, % [2]: 21% | Binding to 1 nM Flk-1, % [3]: 12%

B39: E23 (designed binder)
chain: EVVAATPTSLLISWRHHPHFPTRYYRITYGETGGNSPVQEFTVPLQPPTATISGLKPGVDYTITGYAVTVHWNGRELMTPISINYRT
notes: 10Fn3 clone, Del 1-8
Binding to 1 nM KDR, % [2]: 36% | Binding to 1 nM Flk-1, % [3]: 7%

B40: 4A12 PR3 (designed binder)
chain: B21 chain with E70A, R71Q, E73D, R74H, V75E, M77L
notes: tag left out
Binding to 1 nM KDR, % [1]: 13%

B41: 1′DelA9 PR4 (designed binder)
chain: B21 chain with V69L, E70A, R71Q, E73D, R74H, V75E
notes: tag left out
Binding to 1 nM KDR, % [1]: 13%

B42: 1′DelB7 PR4 (designed binder)
chain: B21 chain with E70A, R71Q, E73D, R74H, V75E, M77K
notes: tag left out
Binding to 1 nM KDR, % [1]: 8%

B43: 1′DelB10 PR4 (designed binder)
chain: B21 chain with E70A, E73D, R74H, V75E
notes: tag left out
Binding to 1 nM KDR, % [1]: 11%

B44: 1′DelC2 PR4 (designed binder)
chain: B21 chain with E70D, E73D, R74H, V75E, M77F
notes: tag left out
Binding to 1 nM KDR, % [1]: 13%
